{"source": "the DeepSol protein solubility set"}
{"experiment": "soluble on expression in E. coli; label from the status in PepcDB or PDB records"}
{"sequence": "MIVSMIAALANNRVIGLDNKMPWHLPAELQLFKRATLGKPIVMGRNTFESIGRPLPGRLNIVLSRQTDYQPEGVTVVATLEDAVVAAGDVEELMIIGGATIYNQCLAAADRLYLTHIELTTEGDTWFPDYEQYNWQEIEHESYAADDKNPHNYRFSLLERVK", "soluble on expression in E. coli": "soluble"}
{"sequence": "MIVVSGSQSQNLAFKVAKLLNTKLTRVEYKRFPDNEIYVRIVDEINDDEAVIINTQKNQNDAIVETILLCDALRDEGVKKITLVAPYLAYARQDKKFNPGEAISIRALAKIYSNIVDKLITINPHETHIKDFFTIPFIYGDAVPKLAEYVKDKLNDPIVLAPDKGALEFAKTASKILNAEYDYLEKTRLSPTEIQIAPKTLDAKDRDVFIVDDIISTGGTMATAVKLLKEQGAKKIIAACVHPVLIGDALNKLYSAGVEEVVGTDTYLSEVSKVSVAEVIVDLL", "soluble on expression in E. coli": "soluble"}
{"sequence": "MIYFIRKKKWLKQLEKGEAMKYAILIGDGMADYPIEKLGNRTILQAARTPAMDSIAARGRAGLAKTVPDSFPPGSDVANMSILGYDPATYYSGRAPLEAASMGVALAADDVAFRCNLITTEHGMIKDYSAGHISSDEAEILIDTLDYELSTENIRFYPGISYRHLIVAGNNLGAETECTPPHDITGEKIDKYLPRGKDGEFFSELIEASKVVLELHPVNLKRVEEGKNPANSIWVWGQGYAPKFTAFMKLYGKKGAVISAVDLLKGIGIYAGLDVIEVHGATGYLDTNYEGKVRAAIEALKTRDLVFVHVEAPDEAGHEGSIEKKLKAVEDFDSRIVAPILEYAENSDEPFTILVLPDHPTPISVKTHTRDPIPFAIYRTDKPETDNVEAFDEESVKNGSMGLVKASDLIGILIKSLEHHHHHH", "soluble on expression in E. coli": "soluble"}
{"sequence": "MIYSMTAYARKEVKGDWGSAVWEIRSVNQRYLETYFRLPEQFRGLEPLLRERFRQRLSRGKIECHLRFEANPAAQSHLTINEGLAQQVINAANQIMHMTGELSRINPFQVMQWPGVMETPEQDMDAINQALLSAFDEGVDEFIAARGREGDNMKALIEQRLQAISAEVVKVRARMPEILEWQRERLFSKFEEAKIELDASRVEQELILLAQKSDVAEELDRLDSHVKEAREVLKKGGSCGRKLDFMMQEFNRESNTLASKSISTDITASGVELKVLIEQMREQIQNIE", "soluble on expression in E. coli": "not soluble"}
{"sequence": "MKAERILGALYGQALGDAMGMPSELWPRTRVKAHFGWIDRFLPGPKENNAACYFNRAEFTDDTAMALCLADALLECEGNIDPEIIGRNILAWAERFDAFNKNVLGPTSKIALNAIRDGKPIAALENNGVTNGAAMRVSPLGCLLPPTNLTAFIAEVALASSPTHKSDLAVAGAVVVAWAVSRAVNGDTWQSIADSLPAVAHQAQTARITTFSASLSARLELALNIVRHADGVESASEQLYQIIGAGTSTIESVPCAIAMVELANTDPNRCAVLCANLGGDTDTIGAMATAICGALHGVSAINPQLKQTLDEVNQLDFARYAVALASYRQRREAL", "soluble on expression in E. coli": "not soluble"}
{"sequence": "MKAICVLSGGLDSAVTSMFAKSKNYDISTVTFNYGQMALNQEIKSAKKISDILNADHHVIDINFVKEFSKSGLNTGNIPEPENEDLDDFEKSEKTMKAVWVPARNMIMFSIASGFAEGIGAEKIFSGLNKEEGVTFPDNTPEFIERFNKSLEYGTLNKVKMVAPLYELNKPEIAKLGKELELKLDLEVLKYSYSCYKDNGKDYLHCGTCESCMRRKRAFKEAGITDPTKYLVE", "soluble on expression in E. coli": "not soluble"}
{"sequence": "MKAKAILLASVLLVGCQTSQNTGNVQQHAQSLSAAGQGEAGKFTSQARWMDDGTSIAPDQDLWAFIGDELKMGIPENSRIREQKQKYLRNKSYLHDVTLRAEPYMYWIAGQVKKRNMPMELVLLPIVESAFDPHATSGANAAGIWQIIPSTGRNYGLKQTRNYDARRDVVASTTAALDMMQRLNKMFDGDWLLTVAAYNSGEGRVMRAIKANKARGKPTDFWSLSLPRETKLYVPKMLALSEILKNSKRYGVRLPTTDESRALARVRLNSPVEMAQVADMAGMSISKLKTFNAGVKGSTLGVSGPQYVMVPKKHAEQLRESLASGEIDAVQSQLIADNTPLNSRSYKVRSGDTLSGIASRLGVSTKDLQQWNNLRGSRLKIGQSLTVGAGSSAQRLANNSDSITYRVRKGDSLSSIARRHGVNIKDVMRWNHDTDNLQPGDQLTLFVKDNSTPDSLEHHHHHH", "soluble on expression in E. coli": "soluble"}
{"sequence": "MKAKPSHQATSMSSSLRVSPSIHGYHFDTAARKKAVGNIFENIDQESLQRLFRNSGDKKAEERAKIIFAIDQDLEEKTRALMALKKRTKDKLLQFLKLRKYSIKVH", "soluble on expression in E. coli": "not soluble"}
